According to US20220213201A1 (PHARMABCINE, published 2022):

Columns and labels:
[1] = target: T1, human TIE2-his (Sino Biological, 10700-H08H) (human, UniProt Q02763 23-745); test: Octet (BLI), antibody fixed on the biosensor, hTIE2-his in solution
T1 construct: Bought protein; also called hTIE2-his; hTIE2; not shown: his tag
Procedure: (§1) The anti-TIE2 antibody was fixed at the biosensor and tested according to the manufacturer's manual. The binding kinetics at each concentration of human TIE2 and mouse Tie2 were measured to calculate the binding rate constant (kₒₙ), dissociation rate constant (koff), and binding constant (KD) (Table 4).

[2] = target: T2, mouse TIE2 overexpressed on CHO-K1 cells (mouse, UniProt Q02858 23-1122); test: flow cytometry on mTIE2/CHO-K1 cells, PE anti-human IgG-Fc secondary
T2 construct: whole, on cells; also called mTIE2/CHO-K1
Procedure: (§2) In order to determine the binding to cell-expressing TIE2, the binding to the self-established human/mouse TIE2 overexpressing CHO-K1 cell lines (hTIE2/CHO-K1, mTIE2/CHO-K1) was measured using flow cytometry. Each cell line was maintained and cultured, hTIE2 CHO-K1 was washed with PBS, 5 mM EDTA was added thereto to obtain a cell suspension, and each cell was recovered through centrifugation. A cell suspension of 5×10⁶ cells/mL was prepared using FACS-dedicated buffer (PBS containing 2% FBS, 0.05% sodium azide), and 100 μL of the cell suspension was dispensed into each tube. 100 μL of 2 μg/mL clones was added to each test tube and allowed to stand at 4° C. for 30 minutes to induce cell binding. The cells were washed with 2 mL of FACS buffer, 100 μL of a secondary antibody dilution (1/500, PE-conjugated anti-human IgG-Fc polyclonal antibody fragment, *A80-248PE, Bethyl Laboratories Inc. US) was added thereto, and the resulting mixture was allowed to stand at 4° C. for 20 minutes to perform fluorescent labeling. The cells were washed with 2 mL of FACS buffer and then suspended in 200 μL of FACS buffer. […]

[3] = target: T3, mouse Tie2-his (Sino Biological, 51087-M08H) (mouse, UniProt Q02858 23-743); test: ELISA, purified IgG on coated mTIE2-his (1 µg/mL), HRP anti-human detection
T3 construct: Bought protein; also called mTIE2-his; mTie2-his; not shown: his tag
Procedure: (§3) Whether or not the binding of TIE2 to the ScFv phage clone was maintained in IgG was determined through ELISA. 1 μg/ml of Ag (hTIE2-his: Sino Biological, 10700-H08H; mTIE2-his: Sino Biological, 51087-M08H) was plated at 100 μl/well onto a 96-well plate and incubated at 4° C. overnight. The next day, the cells grown the day before were centrifuged at 3,000 rpm for 10 minutes and stored at 4° C. The plated Ag was washed 3 times with 0.1% TBST and 200 μl of 2% BSA blocking buffer was added thereto, followed by incubation at 25° C. for 2 hours. After blocking was completed, the resulting product was washed 3 times with 0.1% TBST. […] After phage binding, the resulting product was washed 3 times with 0.1% TBST and 100 μl of HRP-conjugated goat anti-human Ab (1:3000, Sino, 11973-MM05) was added thereto, followed by incubation at 25° C. for 1 hour. After reaction, the resulting product was washed 3 times with 0.1% TBST, 100 μl of TMB (BD TMB substrate reagent set * 555214) was added thereto, color was developed for 3 to 5 minutes, 50 μl of a stop solution was added thereto, and then an assay was performed using an ELISA reader.

[4] = target: T3, mouse Tie2-his (Sino Biological, …); test: ELISA, scFv phage on mouse TIE2 antigen, HRP anti-M13 detection
[5] = target: T1, human TIE2-his (Sino Biological, …); test: ELISA, scFv phage on coated hTIE2-his, HRP anti-M13 detection
[6] = target: T3, mouse Tie2-his (Sino Biological, …); test: Octet (BLI), antibody fixed on the biosensor, mTie2-His in solution
Procedure: as §1

[7] = target: T1, human TIE2-his (Sino Biological, …); test: ELISA, purified IgG on coated hTIE2-his (1 µg/mL), HRP anti-human detection
Procedure: as §3

[8] = target: T4, human TIE2 overexpressed on CHO-K1 cells (human, UniProt Q02763 23-1124); test: flow cytometry on hTIE2/CHO-K1 cells, 2 µg/mL clone, PE anti-human IgG-Fc secondary
T4 construct: whole, on cells; also called hTIE2/CHO-K1; hTIE2 CHO-K1
Procedure: as §2

T1 sequence (Q02763 23-745 limits assumed): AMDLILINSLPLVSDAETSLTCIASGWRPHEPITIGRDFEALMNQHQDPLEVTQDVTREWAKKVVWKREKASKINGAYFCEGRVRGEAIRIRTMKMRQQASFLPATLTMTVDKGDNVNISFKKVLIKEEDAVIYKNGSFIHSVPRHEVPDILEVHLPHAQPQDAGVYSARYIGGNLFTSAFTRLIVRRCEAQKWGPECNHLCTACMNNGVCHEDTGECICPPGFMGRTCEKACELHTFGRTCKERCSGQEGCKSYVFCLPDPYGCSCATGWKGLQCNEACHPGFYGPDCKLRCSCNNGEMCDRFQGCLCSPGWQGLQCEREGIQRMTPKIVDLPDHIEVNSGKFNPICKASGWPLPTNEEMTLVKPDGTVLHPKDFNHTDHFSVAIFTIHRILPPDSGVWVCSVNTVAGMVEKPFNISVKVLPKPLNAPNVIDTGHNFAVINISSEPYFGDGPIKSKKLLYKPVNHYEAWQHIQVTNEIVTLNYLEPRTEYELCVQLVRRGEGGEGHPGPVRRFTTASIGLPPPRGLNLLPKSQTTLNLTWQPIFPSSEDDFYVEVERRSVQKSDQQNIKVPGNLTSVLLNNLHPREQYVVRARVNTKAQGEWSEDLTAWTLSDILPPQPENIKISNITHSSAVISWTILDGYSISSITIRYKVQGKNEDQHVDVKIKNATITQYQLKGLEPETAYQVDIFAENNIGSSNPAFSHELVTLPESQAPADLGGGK
T3 sequence (Q02858 23-743 limits assumed, stated change not applied): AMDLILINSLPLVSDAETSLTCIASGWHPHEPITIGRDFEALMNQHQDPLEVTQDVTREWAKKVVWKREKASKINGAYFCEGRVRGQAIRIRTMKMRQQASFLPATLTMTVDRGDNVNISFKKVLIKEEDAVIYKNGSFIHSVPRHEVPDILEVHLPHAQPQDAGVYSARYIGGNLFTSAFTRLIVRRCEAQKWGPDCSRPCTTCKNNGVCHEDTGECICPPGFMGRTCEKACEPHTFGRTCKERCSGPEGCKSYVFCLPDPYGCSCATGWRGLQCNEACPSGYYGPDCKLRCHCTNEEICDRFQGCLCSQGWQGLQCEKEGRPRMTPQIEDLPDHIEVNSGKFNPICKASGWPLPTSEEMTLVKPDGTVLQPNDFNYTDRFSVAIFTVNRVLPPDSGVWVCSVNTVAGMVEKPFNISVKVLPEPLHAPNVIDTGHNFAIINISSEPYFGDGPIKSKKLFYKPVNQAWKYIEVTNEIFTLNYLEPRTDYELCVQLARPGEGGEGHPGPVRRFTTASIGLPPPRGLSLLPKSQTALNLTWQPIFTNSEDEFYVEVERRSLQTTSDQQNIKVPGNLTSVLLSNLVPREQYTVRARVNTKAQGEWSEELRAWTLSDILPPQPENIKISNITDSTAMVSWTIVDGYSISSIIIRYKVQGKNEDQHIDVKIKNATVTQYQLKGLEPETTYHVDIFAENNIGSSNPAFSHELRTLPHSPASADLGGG
T4 sequence (Q02763 23-1124): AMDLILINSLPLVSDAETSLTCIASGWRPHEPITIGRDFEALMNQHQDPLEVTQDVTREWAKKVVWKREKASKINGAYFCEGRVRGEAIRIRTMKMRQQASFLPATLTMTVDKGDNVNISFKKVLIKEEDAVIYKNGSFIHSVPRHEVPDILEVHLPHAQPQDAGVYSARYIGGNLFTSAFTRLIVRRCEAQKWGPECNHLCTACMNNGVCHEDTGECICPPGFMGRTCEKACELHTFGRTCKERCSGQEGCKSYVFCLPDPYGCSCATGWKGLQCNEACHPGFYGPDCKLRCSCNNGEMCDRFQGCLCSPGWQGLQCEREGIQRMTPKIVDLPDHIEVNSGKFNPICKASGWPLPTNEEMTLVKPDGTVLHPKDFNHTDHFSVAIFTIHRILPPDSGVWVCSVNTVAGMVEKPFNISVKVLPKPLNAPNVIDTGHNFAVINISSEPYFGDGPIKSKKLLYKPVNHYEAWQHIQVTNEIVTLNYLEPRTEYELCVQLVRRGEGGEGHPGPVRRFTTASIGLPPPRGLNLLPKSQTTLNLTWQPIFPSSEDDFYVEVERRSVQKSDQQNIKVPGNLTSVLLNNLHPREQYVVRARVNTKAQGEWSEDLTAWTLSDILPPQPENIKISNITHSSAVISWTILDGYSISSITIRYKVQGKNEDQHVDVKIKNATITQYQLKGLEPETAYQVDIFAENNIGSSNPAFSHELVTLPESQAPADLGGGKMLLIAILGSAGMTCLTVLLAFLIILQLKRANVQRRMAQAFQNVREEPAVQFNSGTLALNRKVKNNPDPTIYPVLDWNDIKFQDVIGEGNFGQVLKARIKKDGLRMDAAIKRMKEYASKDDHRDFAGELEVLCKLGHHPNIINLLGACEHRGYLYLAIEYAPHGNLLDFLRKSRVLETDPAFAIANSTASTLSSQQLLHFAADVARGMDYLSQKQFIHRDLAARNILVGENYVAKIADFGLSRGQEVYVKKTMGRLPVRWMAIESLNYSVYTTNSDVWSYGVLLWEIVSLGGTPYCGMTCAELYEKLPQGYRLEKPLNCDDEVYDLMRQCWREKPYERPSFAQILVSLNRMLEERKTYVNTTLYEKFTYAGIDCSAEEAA
T2 sequence (Q02858 23-1122): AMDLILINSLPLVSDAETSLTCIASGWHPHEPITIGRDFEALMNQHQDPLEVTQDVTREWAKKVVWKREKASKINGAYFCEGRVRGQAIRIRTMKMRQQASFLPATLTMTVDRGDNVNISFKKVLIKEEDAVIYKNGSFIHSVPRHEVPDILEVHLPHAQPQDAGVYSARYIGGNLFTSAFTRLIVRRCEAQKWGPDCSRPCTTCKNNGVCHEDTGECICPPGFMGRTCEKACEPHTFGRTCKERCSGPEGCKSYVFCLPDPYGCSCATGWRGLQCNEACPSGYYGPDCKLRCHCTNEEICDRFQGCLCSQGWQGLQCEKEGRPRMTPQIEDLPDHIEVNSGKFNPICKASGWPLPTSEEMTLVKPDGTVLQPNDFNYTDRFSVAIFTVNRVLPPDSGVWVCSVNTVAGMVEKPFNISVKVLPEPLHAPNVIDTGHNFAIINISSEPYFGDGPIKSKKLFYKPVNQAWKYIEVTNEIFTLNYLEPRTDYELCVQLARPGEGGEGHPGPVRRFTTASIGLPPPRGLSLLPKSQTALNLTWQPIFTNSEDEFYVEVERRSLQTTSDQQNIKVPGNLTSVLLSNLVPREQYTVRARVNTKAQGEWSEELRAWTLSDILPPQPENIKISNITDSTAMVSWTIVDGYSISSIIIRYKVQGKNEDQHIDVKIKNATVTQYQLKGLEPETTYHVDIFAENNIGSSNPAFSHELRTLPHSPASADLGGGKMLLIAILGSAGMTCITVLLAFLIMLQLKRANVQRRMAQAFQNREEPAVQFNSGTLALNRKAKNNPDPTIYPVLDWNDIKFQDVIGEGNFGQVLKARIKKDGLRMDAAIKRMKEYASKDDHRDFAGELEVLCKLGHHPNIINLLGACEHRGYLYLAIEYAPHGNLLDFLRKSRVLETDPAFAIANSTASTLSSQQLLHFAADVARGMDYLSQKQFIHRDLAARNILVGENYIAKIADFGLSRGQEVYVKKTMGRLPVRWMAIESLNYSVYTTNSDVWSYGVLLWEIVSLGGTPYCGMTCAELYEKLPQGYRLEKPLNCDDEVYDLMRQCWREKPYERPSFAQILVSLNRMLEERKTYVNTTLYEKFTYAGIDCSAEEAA

Row | Binder | Kd [1] [nM] | koff [1] [s⁻¹] | kon [1] [M⁻¹ s⁻¹] | binding result [3] | Mouse ELISA [4] | Human ELISA [5] | other results
1 | anti-TIE2 antibody 2F2 (IgG) (antibody, V domains shown, also called 2F2 clone) VH: QVQLVESGGGLVQPGGSLRLSCAASGFTFSSYAMTWVRQAPGKGLEWVSRISGSGGSTNYADSVKGRFTISRDNSKNTLYLQMNSLRAEDTAVYYCARGGLHHGFDIWGQGTMVTVSS VL: SYELTQPPSLSVAPGKTARITCDGDNIESKSVHWYQQKPGQAPVLVIYYDNDRPSGIPERFSGSNSGNTATLTISRVEAGDEADYYCQVWDTYTDQPVFGGGTKLTVLG | 0.794 | 0.000116 | 146000 | no binding |  |  | binding result [2]: no binding
2 | 1A9 monoclonal scFv phage (scFv) QMQLVQSEAEVKKPGASVKVSCKASGYTFNSYDIHWVRQAPGQGLEWMGVVNPPGGTGSTVYAQKFEDRLTLTTDMSTSTAYMELSSLRSEDTAVYYCARDYNRAPPTLDVWGQGTTITVSSNFMLTQPASVSGSPGQSITISCTGSSSDVGGYNYVSWYQQHPGKAPQLIIYDVTKRPSGVSNRFSGSKSGNSASLTISGLQAEDEADYYCSSYSSSTFYVFGTGTKVTVLG |  |  |  |  | 0 | 2.4 | 
3 | anti-TIE2 antibody 4E2 (IgG) (antibody, V domains shown, also called 4E2 clone) VH: QVQLVQSGGGLIQPGGSLRLSCAASGFTFSDYAMHWVRQAPGKGLEWVALISFDGNNQYYADSVKGRFTISRDNSKNTIYLQMNSLRAEDTAVYYCTTDTMSGYDWEDAFDIWGQGTMITVSS VL: DIQMTQSPSSLSASIGDRVTITCRASQSIGRWLAWYQQKPGKAPKLLIYAASSLQSGVPSRFSGSGSGTDFTLTISSLQPEDFATYYCQQSYSTPYTFGQGTKVEIKR | < 0.001 | < 1e-07 | 106000 |  |  |  | Kd [6]: 13.8 nM; koff [6]: 0.00291 s⁻¹; kon [6]: 212000 M⁻¹ s⁻¹
4 | anti-TIE2 antibody 11F (IgG) (antibody, V domains shown, also called 11F antibody; No. 6) VH: QVQLVESGGGVVQPGRSLRLSCSASGFSFSDHAMHWVRQAPGRGLEWVATVWPDGSNKYYVDSVNGRFSISRDNSKNTVSLQMNSLRAEDTAVYYCARDSGPISRGDLTYWGPGVLVTVSS VL: NFMLTQPHSVSESPGKTVIISCTGSGGSIASNYVQWYQQRPGSAPTIVIYEDDQRPSGVPDRYSGSTDSSSNSASLTISGLRAEDEADYYCQSYDDTNVVFGGGTKLTVLG | 2.76 | 0.000152 | 55300 |  |  |  | 
5 | 2F2 monoclonal scFv phage (scFv) QVQLVESGGGLVQPGGSLRLSCAASGFTFSSYAMTWVRQAPGKGLEWVSRISGSGGSTNYADSVKGRFTISRDNSKNTLYLQMNSLRAEDTAVYYCARGGLHHGFDIWGQGTMVTVSSSYELTQPPSLSVAPGKTARITCDGDNIESKSVHWYQQKPGQAPVLVIYYDNDRPSGIPERFSGSNSGNTATLTISRVEAGDEADYYCQVWDTYTDQPVFGGGTKLTVLG |  |  |  |  | 0.1 | 1.9 | 
6 | 3D6 monoclonal scFv phage (scFv) QVQLVESGGGLVQPGGSLRLSCIGSGFTFSRYNINWVRQAPGKGLEWVSSISSSGRFIHYAGSVKGRFTVSRDNTKNSVSLQMNSLRAEDTAVYYCARDSPTQGPYYYYGMDVWGQGTTITVSSSYELTQPPSESVAPGKTATITCGGNKIGSKSVHWYQQKPGQAPLMVIYYDSDRPSGIPERFSGSNSGNTATLTISRVEVGDEADYYCQVWDSSSDRPVFGGGTKLTVLG |  |  |  |  | 0.1 | 2.1 | 
7 | anti-TIE2 antibody 3D6 (IgG) (antibody, V domains shown, also called 3D6 clone) VH: QVQLVESGGGLVQPGGSLRLSCIGSGFTFSRYNINWVRQAPGKGLEWVSSISSSGRFIHYAGSVKGRFTVSRDNTKNSVSLQMNSLRAEDTAVYYCARDSPTQGPYYYYGMDVWGQGTTITVSS VL: SYELTQPPSESVAPGKTATITCGGNKIGSKSVHWYQQKPGQAPLMVIYYDSDRPSGIPERFSGSNSGNTATLTISRVEVGDEADYYCQVWDSSSDRPVFGGGTKLTVLG |  |  |  | no binding |  |  | binding result [7]: binds; binding result [8]: binds; binding result [2]: no binding
8 | 4E2 monoclonal scFv phage (scFv) QVQLVQSGGGLIQPGGSLRLSCAASGFTFSDYAMHWVRQAPGKGLEWVALISFDGNNQYYADSVKGRFTISRDNSKNTIYLQMNSLRAEDTAVYYCTTDTMSGYDWEDAFDIWGQGTMITVSSDIQMTQSPSSLSASIGDRVTITCRASQSIGRWLAWYQQKPGKAPKLLIYAASSLQSGVPSRFSGSGSGTDFTLTISSLQPEDFATYYCQQSYSTPYTFGQGTKVEIKR |  |  |  |  | 0.4 | 1.2 | 
9 | anti-TIE2 antibody 1A9 (IgG) (antibody, V domains shown, also called 1A9 clone) VH: QMQLVQSEAEVKKPGASVKVSCKASGYTFNSYDIHWVRQAPGQGLEWMGVVNPPGGTGSTVYAQKFEDRLTLTTDMSTSTAYMELSSLRSEDTAVYYCARDYNRAPPTLDVWGQGTTITVSS VL: NFMLTQPASVSGSPGQSITISCTGSSSDVGGYNYVSWYQQHPGKAPQLIIYDVTKRPSGVSNRFSGSKSGNSASLTISGLQAEDEADYYCSSYSSSTFYVFGTGTKVTVLG |  |  |  | no binding |  |  | binding result [7]: binds; binding result [8]: binds
